Source: publication PMC4183148
Where “and” joins values, the source holds several entries; their conditions need not be identical. Identical values can stand only once. Like-named read-outs stand apart in the source and are kept apart here.

Key:
[1] = target: PKM2 (pyruvate kinase, M2 isoform), endogenous (human (endogenous in HEK293T, H1299, U87)) (UniProt P14618); test: SEC
[2] = target: PKM2 (pyruvate kinase, M2 isoform), endogenous (human (endogenous in HEK293T, H1299, U87)) (UniProt P14618); test: SEC; remark: listed apart in the source

Sequence of PKM2 (pyruvate kinase, M2 isoform), endogenous, P14618 1-531 (natural protein; other documents disagree on this pair) (P14618 whole entry, canonical isoform): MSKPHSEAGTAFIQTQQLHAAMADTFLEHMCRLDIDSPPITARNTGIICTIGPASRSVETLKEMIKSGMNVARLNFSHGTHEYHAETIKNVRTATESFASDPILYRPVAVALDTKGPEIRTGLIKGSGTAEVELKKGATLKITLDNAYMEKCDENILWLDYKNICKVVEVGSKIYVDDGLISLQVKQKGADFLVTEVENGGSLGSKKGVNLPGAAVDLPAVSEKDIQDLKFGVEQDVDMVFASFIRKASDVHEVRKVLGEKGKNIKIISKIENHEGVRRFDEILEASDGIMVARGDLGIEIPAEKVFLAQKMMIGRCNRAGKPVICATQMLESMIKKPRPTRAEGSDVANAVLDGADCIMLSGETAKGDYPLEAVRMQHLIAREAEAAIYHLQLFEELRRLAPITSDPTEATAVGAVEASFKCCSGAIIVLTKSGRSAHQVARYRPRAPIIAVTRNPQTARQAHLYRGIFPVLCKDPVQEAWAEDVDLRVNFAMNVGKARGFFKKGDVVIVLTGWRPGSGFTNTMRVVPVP

PKM2 (pyruvate kinase, M2 isoform), endogenous, P14618 1-531 (natural protein; other documents disagree on this pair)
percent dimeric form [1]: 66.5% and 56% | percent tetrameric form [1]: 26.2% and 43.8% | percent dimeric form [2]: 78.9% | percent tetrameric form [2]: 20.1%
